Experimental data: patent US20120237496

Columns and labels:
[1] = test system: T1, Somatostatin 1-28 (fluorescein/Lys-biotin labelled synthetic peptide)
T1 sequence: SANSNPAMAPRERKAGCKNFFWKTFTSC

[2] = test system: Bradykinin (fluorescein/Lys-biotin labelled synthetic peptide)
[3] = test system: T2, ANP (fluorescein/Lys-biotin labelled synthetic peptide)
T2 sequence: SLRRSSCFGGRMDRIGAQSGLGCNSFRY

[4] = test system: GIP (fluorescein/Lys-biotin labelled synthetic peptide)
[5] = test system: Endothelin-1 (average of the 1a and 1b isoforms)
[6] = test system: Glucagon (fluorescein/Lys-biotin labelled synthetic peptide)
Chain of Glucagon (fluorescein/Lys-biotin labelled synthetic peptide) (chain, as listed by the source): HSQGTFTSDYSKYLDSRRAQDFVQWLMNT

[7] = test system: Angiotensin (fluorescein/Lys-biotin labelled synthetic peptide)
[8] = test system: A-beta 1-40 (fluorescein/Lys-biotin labelled synthetic peptide)
Chain of A-beta 1-40 (fluorescein/Lys-biotin labelled synthetic peptide) (peptide, as listed by the source): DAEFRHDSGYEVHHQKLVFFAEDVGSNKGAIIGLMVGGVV

[9] = test system: GLP-1 (fluorescein/Lys-biotin labelled synthetic peptide)
Chain of GLP-1 (fluorescein/Lys-biotin labelled synthetic peptide) (chain, as listed by the source): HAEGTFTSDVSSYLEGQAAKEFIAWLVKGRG

[10] = test system: Neurotensin (fluorescein/Lys-biotin labelled synthetic peptide)

Chain of GIP (fluorescein/Lys-biotin labelled synthetic peptide) (chain, as listed by the source): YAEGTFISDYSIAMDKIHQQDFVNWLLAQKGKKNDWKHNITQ

HSA-Nep-G399V/G714K
kcat/KM [1]: 3000 M⁻¹ s⁻¹
ratio of kcat/KM, mutant vs wild type [1]: 0.0054
kcat/KM [2]: 85 M⁻¹ s⁻¹
ratio of kcat/KM, mutant vs wild type [2]: 0.00017
kcat/KM [3]: 42000 M⁻¹ s⁻¹
ratio of kcat/KM, mutant vs wild type [3]: 0.15
kcat/KM [4]: 130 M⁻¹ s⁻¹
ratio of kcat/KM, mutant vs wild type [4]: 0.28
kcat/KM [5]: 62000 M⁻¹ s⁻¹
ratio of kcat/KM, mutant vs wild type [5]: 0.21
kcat/KM [6]: 88000 M⁻¹ s⁻¹
ratio of kcat/KM, mutant vs wild type [6]: 0.35
kcat/KM [7]: 14000 M⁻¹ s⁻¹
ratio of kcat/KM, mutant vs wild type [7]: 0.012
kcat/KM [8]: 55000 M⁻¹ s⁻¹
ratio of kcat/KM, mutant vs wild type [8]: 4.2
kcat/KM [9]: 36000 M⁻¹ s⁻¹
ratio of kcat/KM, mutant vs wild type [9]: 0.25
kcat/KM [10]: 2600 M⁻¹ s⁻¹
ratio of kcat/KM, mutant vs wild type [10]: 0.004
